Test results published in paper PMC3999280.

Key:
[1] = target: LdtRLas (LdtR from 'Candidatus Liberibacter asiaticus', […]_01180) ('Candidatus Liberibacter asiaticus' str. psy62); test: SEC
[2] = target: LdtRLas ('Candidatus Liberibacter asiaticus') (UniProt A0ABN4AZS1); test: EMSA; settings: EMSA: 50 mM Tris-HCl pH 7.2, 150 mM KCl, 10 mM MgCl2, 0.01% Triton X-100, 12.5 ng/uL each poly(dI-dC) and poly(dA-dT), 1 ng probe in 20 uL, 20 min at 37 C; 6% …

Substance	stoichiometry N [1]	K half [2]
LdtRLas (LdtR from 'Candidatus Liberibacter asiaticus', […]_01180) (natural protein)	2	–
PldtP (PldtPLas)	–	100 nM
